Measurements from patent US20240082398A1, “METHODS OF PREPARING AND EXPANDING TYPE I INNATE LYMPHOID CELLS AND THERAPEUTIC USES THEREOF” (City of Hope, priority 2021, published 2024).

Tested on: IFN-γ^+ ILC1s
Assay: In vitro stimulation: IFN-γ production by ILC1s
Assay type: cell-based, mouse
Conditions: neutralizing antibody 10 μg/ml with LSCs, or IL-7 100 ng/ml; 12 h, IL-12 plus IL-15
Excerpt: ILC1s from human peripheral blood were identified by a surface stain including a live/dead cell viability cell staining kit (Invitrogen) and the following monoclonal antibodies: lineage (FITC-conjugated anti-CD3, anti-CD4, anti-CD8, anti-CD14, anti-CD15, anti-CD16, anti-CD19, anti-CD20, anti-CD33, anti-CD34, anti-CD203c, anti-FceRI), CD56 (FITC, AF700 or BV421 conjugated anti-CD56), CD127 (APC-conjugated anti-CD127), CRTH2 (PE-Cy7-conjugated anti-CRTH2), and c-Kit (PE-conjugated anti-c-Kit). ILC from mice were identified by a surface stain and the following monoclonal antibodies: lineage (PE-Cy7-conjugated anti-CD3 and anti-CD19), NK1.1 (BV510-conjugated anti-NK1.1), NKp46 (BV421, FITC or AF647-conjugated anti-NKp46), CD49b (BUV395 or PE-conjugated anti-CD49b), and CD49a (BV711-conjugated anti-CD49a). Human LSCs were identified by lineage (FITC-conjugate anti-CD2, anti-CD3, anti-CD4, anti-CD8, anti-CD14, anti-CD19, anti-CD20, anti-Mac-1, anti-CD56, and anti-CD235a), CD45 (BV510-conjugated anti-CD45), CD34 (BV510-conjugate anti-CD34), and CD38 (BV605 conjugated anti-CD38). Mouse LSCs were identified by lineage (PE-Cy7 conjugated anti-CD3, anti-CD19, anti-B220, anti-Ly6G/C, anti-Mac-1, anti-CD11b, and anti-Ter119), Sca-1 (PE-CF594 or BV510-conjugate anti-Sca-1), and c-Kit (BV711-conjugated anti-c-Kit). […]

B1: IL-7: recombinant mouse IL-7 (100 ng/ml) (protein)
chain: ECHIKDKEGKAYESVLMISIDELDKMTGTDSNCPNNEPNFFRKHVCDDTKEAAFLNRAARKLKQFLKMNISEEFNVHLLTVSQGTQTLVNCTSKEEKNVKEQKKNDACFLKRLLREIKTCWNKILKGSI
- effect on production of IFN-γ in normal ILC1s: significantly increased
